Measured values taken from patent US7674604.

How the values were obtained:
[1] = target: LFA-1 mutant K287C/K294C (αL K287C/K294C with β2) on 293T or K562 transfectants (human) (UniProt P05107); experiment: flow cytometry, 293T, normalized to TS2/4
[2] = target: LFA-1 single cysteine substitution mutant K287C on 293T transfectants (human) (UniProt P05107); experiment: flow cytometry, 293T, normalized to TS2/4
[3] = target: LFA-1 single cysteine substitution mutant L289C on 293T transfectants (human) (UniProt P05107); experiment: flow cytometry, 293T, normalized to TS2/4
[4] = target: LFA-1 mutant L289C/K294C (αL L289C/K294C with β2) on 293T or K562 transfectants (human) (UniProt P05107); experiment: flow cytometry, 293T, normalized to TS2/4
[5] = target: LFA-1 single cysteine substitution mutant K294C on 293T transfectants (human) (UniProt P05107); experiment: flow cytometry, 293T, normalized to TS2/4
[6] = target: LFA-1 mutant K287C/K294C (αL K287C/K294C with β2) on 293T or K562 transfectants (human) (UniProt P05107); experiment: flow cytometry on transfectants
[7] = target: isolated K287C/K294C αL I-domain (V130-A338) expressed on K562 cells by the PDGF receptor transmembrane domain (human) (UniProt P20701); experiment: flow cytometry on K562 transfectants
[8] = target: LFA-1 mutant K287C/K294C (αL K287C/K294C with β2) on 293T or K562 transfectants (human) (UniProt P05107); experiment: flow cytometry, K562, normalized to TS2/4
[9] = target: LFA-1 mutant L289C/K294C (αL L289C/K294C with β2) on 293T or K562 transfectants (human) (UniProt P05107); experiment: flow cytometry, K562, normalized to TS2/4
[10] = target: wild-type LFA-1 (αL/β2 complex) expressed on 293T or K562 transfectants (human) (UniProt P05107); experiment: inhibition of adhesion of K562 transfectants (+CBRLFA-1/2) to immobilized ICAM-1
[11] = target: LFA-1 mutant K287C/K294C (αL K287C/K294C with β2) on 293T or K562 transfectants (human) (UniProt P05107); experiment: inhibition of adhesion of K562 transfectants to immobilized ICAM-1
[12] = target: recombinant ICAM-1 Fc chimera immobilized on the BIAcore sensor chip (UniProt P05362); experiment: BIAcore; fit of dissociation phase, 1:1 model; Table 6 kinetic study; Koff from a 1:1 fit of the dissociation phase
[13] = target: recombinant ICAM-1 Fc chimera immobilized on the BIAcore sensor chip (UniProt P05362); experiment: BIAcore; Kon calculated by Koff/KD; Table 6 kinetic study; Kon calculated as Koff/KD from steady-state data, very weak binding
[14] = target: recombinant ICAM-1 Fc chimera immobilized on the BIAcore sensor chip (UniProt P05362); experiment: BIAcore; Scatchard plot at steady state; Table 6 kinetic study; KD from Scatchard plots at steady state, millimolar affinity

Chain of recombinant ICAM-1 Fc chimera immobilized on the BIAcore sensor chip (P05362 28-480 limits assumed, stated change not applied): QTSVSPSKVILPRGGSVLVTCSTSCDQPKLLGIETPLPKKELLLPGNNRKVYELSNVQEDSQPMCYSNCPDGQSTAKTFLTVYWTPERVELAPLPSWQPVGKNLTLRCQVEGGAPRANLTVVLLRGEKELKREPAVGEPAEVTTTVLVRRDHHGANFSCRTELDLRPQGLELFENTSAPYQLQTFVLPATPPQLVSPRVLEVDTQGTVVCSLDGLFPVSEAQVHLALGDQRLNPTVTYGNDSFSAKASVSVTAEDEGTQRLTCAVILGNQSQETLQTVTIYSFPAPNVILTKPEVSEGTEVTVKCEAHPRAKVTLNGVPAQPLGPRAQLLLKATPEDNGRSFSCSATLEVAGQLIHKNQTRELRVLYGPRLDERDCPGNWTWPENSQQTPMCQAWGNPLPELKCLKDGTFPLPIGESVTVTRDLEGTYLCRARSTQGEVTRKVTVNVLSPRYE
Chain of isolated K287C/K294C αL I-domain (V130-A338) expressed on K562 cells by the PDGF receptor transmembrane domain (human) (P20701 155-363 K312C/K319C limits assumed): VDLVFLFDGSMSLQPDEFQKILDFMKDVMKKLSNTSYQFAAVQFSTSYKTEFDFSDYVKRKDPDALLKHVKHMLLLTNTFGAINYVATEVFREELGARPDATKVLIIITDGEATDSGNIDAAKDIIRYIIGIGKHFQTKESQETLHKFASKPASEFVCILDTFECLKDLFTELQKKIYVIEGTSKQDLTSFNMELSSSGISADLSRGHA

| Substance | % wild-type binding (% of wild-type) [1] | % wild-type binding (% of wild-type) [2] | % wild-type binding (% of wild-type) [3] | % wild-type binding (% of wild-type) [4] | % wild-type binding (% of wild-type) [5] | % of wild-type binding (% of wild-type) [6] | % of binding to the wild-type I-domain (% of wild-type I-domain) [7] | % wild-type binding (% of wild-type) [8] | % wild-type binding (% of wild-type) [9] | % inhibition [10] | % inhibition [11] | koff [12] | kon [13] | Kd [14] |
| --- | --- | --- | --- | --- | --- | --- | --- | --- | --- | --- | --- | --- | --- | --- |
| monoclonal antibody CBRLFA-1/1 | 43.6 | 86.1 | 93.3 | 95.9 | 89.4 | 40 to 50 | 80 | 55.5 | 118 | – | – | – | – | – |
| monoclonal antibody YFC51 | 103 | – | – | 95.1 | – | – | – | 101 | 111 | 98.4% | 0.08% | – | – | – |
| recombinant soluble wild-type αL I-domain (G128 to Y307), made in E. coli (from UniProt P20701 153-332) (receptor) | – | – | – | – | – | – | – | – | – | – | – | 3 s⁻¹ | 2220 M⁻¹ s⁻¹ | 1350 µM |
